From patent publication US20210277110A1 (Janssen / Centocor, published 2021)
Where two headings read alike, the source gives them in different places. One block for each binder: values may come before it.

Legend:
[1] = molecular target: T1, Extracellular domain of human PD1 (huPD1-ECD) (human, UniProt Q15116 25-169, biotinylated in the ligand inhibition assay (sites not given)); assay: SPR, human PD-1 affinity
T1 construct: Expressed with a hexahistidine tag or as Fc fusion; also called biotinylated PD-1
T1 sequence (Q15116 25-169 limits assumed): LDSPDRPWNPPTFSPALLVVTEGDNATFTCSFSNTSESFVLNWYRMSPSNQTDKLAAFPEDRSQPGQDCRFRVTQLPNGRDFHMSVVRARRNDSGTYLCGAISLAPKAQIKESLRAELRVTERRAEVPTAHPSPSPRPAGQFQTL

[2] = molecular target: T2, Full length human PD1 (huPD1) on cells (human, UniProt Q15116 25-288); assay: flow cytometry, Jurkat cells
T2 construct: on T cells of human donors in the MLR and CMV assays (functional); also called PD-1 on Jurkat cells
T2 sequence (Q15116 25-288 limits assumed): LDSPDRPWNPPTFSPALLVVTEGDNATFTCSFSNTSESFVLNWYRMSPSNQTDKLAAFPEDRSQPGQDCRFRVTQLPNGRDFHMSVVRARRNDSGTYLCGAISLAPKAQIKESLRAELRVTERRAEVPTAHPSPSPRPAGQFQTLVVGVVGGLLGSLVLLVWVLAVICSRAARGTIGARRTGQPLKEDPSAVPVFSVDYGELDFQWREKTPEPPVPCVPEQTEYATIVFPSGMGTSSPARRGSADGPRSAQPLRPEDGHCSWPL
Protocol: (§1) Jurkat cells were stimulated overnight with 20 ng/ml of PHA, harvested, washed, and checked for viability. The cells were then incubated at 6-10° C. for 45-60 minutes with various concentrations of test antibodies, washed and incubated at 6-10° C. for 45-60 minutes with FITC-labeled goat anti-human IgG. The cells were washed and fixed with BD Cytofix, refrigerated overnight and analyzed on a MACSQuant flow cytometer. The percentage of PD-1 positive cells at each antibody concentration was plotted vs log of the antibody concentration and EC₅₀ values were generated in Prism.

[3] = molecular target: T1, Extracellular domain of human PD1 …; assay: MSD ligand inhibition, competitor coated huPDL1-ECD
Protocol: (§2) The ligand inhibition assay design was MSD (Mescoscale Discovery) based. A MSD plate was directly coated with ligand (cynoPDL1-ECD, huPDL1-ECD or huPDL2-ECD) and incubated overnight at 4° C. The following day, the coating solution was removed and the plate was blocked. […] Depending on the panel of antibodies to be tested, the antibodies were tested as titrations or at a fixed concentration.

[4] = molecular target: T1, Extracellular domain of human PD1 …; assay: MSD ligand inhibition, competitor coated cynoPDL1-ECD
Protocol: as §2

[5] = molecular target: T2, Full length human PD1 (huPD1) on cells; assay: cell-based or functional assay
[6] = molecular target: T2, Full length human PD1 (huPD1) on cells; assay: flow cytometry, PHA-stimulated Jurkat cells
Protocol: as §1

[7] = molecular target: T2, Full length human PD1 (huPD1) on cells; assay: flow cytometry, PHA-stimulated Jurkat cells; remark: listed apart in the source
[8] = molecular target: T1, Extracellular domain of human PD1 …; assay: SPR ProteOn, huPD1-ECD; RANGE low replicate
Protocol: (§3) Affinity measurements using Surface Plasmon Resonance (SPR) were performed using a ProteOn XPR36 system. A biosensor surface was prepared by coupling a mixture of anti-IgG Fc modified alginate polymer layer surface of a GLC chip using the manufacturer instructions for amine-coupling chemistry. […] The collected data were processed and fitted to a Langmuir 1:1 binding model. The result for each mAb was reported in the format of kₒₙ (On-rate), koff (Off-rate) and KD (equilibrium dissociation constant).
(§4) STDEV were calculated for 3 or more replicates generated for human and cyno proteins. If less than 3 replicates were calculated, RANGE is indicated. RANGE is defined as the low and high values for the replicates tested. For samples without RANGE or STDEV, only one experiment was performed

[9] = molecular target: T1, Extracellular domain of human PD1 …; assay: SPR ProteOn, captured mAb, huPD1-ECD analyte
Protocol: as §3
(§5) STDEV were calculated for 3 or more replicates generated for human and cyno proteins. If less than 3 replicates were calculated, RANGE was indicated. RANGE is defined as the low and high values for the replicates tested. For samples in the Table 10 or Table 11 without value indicated in RANGE or STDEV, only one experiment was performed.

[10] = molecular target: T1, Extracellular domain of human PD1 …; assay: SPR ProteOn, captured mAb, huPD1-ECD analyte; remark: listed apart in the source
Protocol: as §3, §4

[11] = molecular target: T1, Extracellular domain of human PD1 …; assay: SPR ProteOn, huPD1-ECD; RANGE high replicate
Protocol: as §3, §4

[12] = molecular target: T3, Extracellular domain of cyno PD1 (cPD1-ECD) (Macaca fascicularis (cynomolgus)); assay: SPR ProteOn, cynoPD1-ECD; RANGE low replicate
T3 construct: Expressed with a hexahistidine tag or as Fc fusion; also called cynoPD1-ECD; cynoPD-1-ECD
T3 chain: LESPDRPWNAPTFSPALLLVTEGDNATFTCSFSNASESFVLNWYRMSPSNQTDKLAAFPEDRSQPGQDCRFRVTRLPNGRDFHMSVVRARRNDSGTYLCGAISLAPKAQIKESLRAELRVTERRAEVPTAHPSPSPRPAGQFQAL
Protocol: as §3, §5

[13] = molecular target: T3, Extracellular domain of cyno PD1 …; assay: SPR ProteOn, cynoPD1-ECD; RANGE low replicate
Protocol: as §3, §4

[14] = molecular target: T3, Extracellular domain of cyno PD1 …; assay: SPR ProteOn, captured mAb, cynoPD1-ECD analyte
Protocol: as §3, §5

[15] = molecular target: T3, Extracellular domain of cyno PD1 …; assay: SPR ProteOn, cynoPD1-ECD; RANGE high replicate
Protocol: as §3, §5

[16] = molecular target: T3, Extracellular domain of cyno PD1 …; assay: SPR ProteOn, captured mAb, cynoPD1-ECD analyte
Protocol: as §3, §4

[17] = molecular target: T3, Extracellular domain of cyno PD1 …; assay: SPR ProteOn, cynoPD1-ECD; RANGE high replicate
Protocol: as §3, §4

[18] = molecular target: T1, Extracellular domain of human PD1 …; assay: MSD ligand inhibition, competitor coated huPDL1-ECD; remark: listed apart in the source
Protocol: as §2

[19] = molecular target: T1, Extracellular domain of human PD1 …; assay: MSD ligand inhibition, competitor coated huPDL2-ECD
Protocol: as §2

[20] = molecular target: T1, Extracellular domain of human PD1 …; assay: MSD ligand inhibition, competitor coated cynoPDL1-ECD; remark: listed apart in the source
Protocol: as §2

[21] = molecular target: T1, Extracellular domain of human PD1 …; assay: as above; remark: listed apart in the source
Protocol: The ligand inhibition assay design was MSD (Mescoscale Discovery) based. A MSD plate was directly coated with ligand (cynoPDL1-ECD, huPDL1-ECD or huPDL2-ECD) and incubated overnight at 4° C. The following day, the coating solution was removed and the plate was blocked. […] Depending on the panel of antibodies to be tested, the antibodies were tested as titrations or at a fixed concentration. […] The mAbs that were positive for inhibition of ligand binding at one concentration were also tested in dose responses for inhibition of various PD-1 ligands.
Select Fabs were cloned as IgG2sigma isotype and characterized for their Jurkat cell binding and cynomolgus PD-L1 ligand inhibition at concentrations 1 μg/ml and 10 μg/ml.

[22] = molecular target: T1, Extracellular domain of human PD1 …; assay: SPR ProteOn, huPD1-ECD; RANGE low replicate; RANGE low replicate
Protocol: as §3, §4

[23] = molecular target: T1, Extracellular domain of human PD1 …; assay: SPR ProteOn, captured mAb; antigen species not given
[24] = molecular target: T1, Extracellular domain of human PD1 …; assay: SPR ProteOn, huPD1-ECD; RANGE high replicate; RANGE high replicate
Protocol: as §3, §4

[25] = molecular target: T1, Extracellular domain of human PD1 …; assay: SPR ProteOn, comparison with PD1B114
[26] = molecular target: T3, Extracellular domain of cyno PD1 …; assay: SPR ProteOn, comparison with PD1B114
[27] = molecular target: T3, Extracellular domain of cyno PD1 …; assay: SPR ProteOn, cynoPD1-ECD; RANGE low replicate; RANGE low replicate
Protocol: as §3, §4

[28] = molecular target: T3, Extracellular domain of cyno PD1 …; assay: SPR ProteOn, cynoPD1-ECD; RANGE high replicate; RANGE high replicate
Protocol: as §3, §5

[29] = molecular target: T3, Extracellular domain of cyno PD1 …; assay: as above
Protocol: as §3, §4

[30] = molecular target: T1, Extracellular domain of human PD1 …; assay: SPR ProteOn, captured mAb, huPD1-ECD analyte; approximation (chi2 > 20%)
Protocol: as §3
STDEV were calculated for 3 or more replicates generated for human and cyno proteins. If less than 3 replicates were calculated, RANGE was indicated. RANGE is defined as the low and high values for the replicates tested.

B1: PD1B131 (antibody, V domains shown)
VH: EVQLVESGGGLVQPGGSLRLSCAASGFAFSRYDMSWIRLAPGKGLESVAYISGGGANTYYLDNVKGRFTISRDNAKNSLYLQMNSLRAEDTAVYYCASPYLSYFDVWGQGTLVTVSS
VL: EIVMTQSPATLSVSPGERATLSCRASQSLSDYLHWYQQKPGQAPRLLIKSASQSISGIPARFSGSGSGTEFTLTISSLQSEDFAVYYCQNGHSFPYTFGQGTKLEIK
notes: Humanized variant of PD1B28; also called PD1H130/PD1L62
Kd [1]: 0.127 nM
koff [1]: 0.000105 s⁻¹
kon [1]: 827000 M⁻¹ s⁻¹
Jurkat cell binding relative to PD1B28 [2]: 100%
IC50 [3]: 0.079 µg/mL
IC50 [4]: 0.096 µg/mL

B4: PD1B11 (antibody, V domains shown)
VH: QVQLVQSGAEVKKPGSSVKVSCKASGGTFSSYAISWVRQAPGQGLEWMGGIIPIFGTANYAQKFQGRVTITADESTSTAYMELSSLRSEDTAVYYCARPGLAAAYDTGSLDYWGQGTLVTVSS
VL: EIVLTQSPATLSLSPGERATLSCRASQSVSSYLAWYQQKPGQAPRLLIYDASNRATGIPARFSGSGSGTDFTLTISSLEPEDFAVYYCQQRSNWPLTFGQGTKVEIK
notes: Tested as IgG2sigma/kappa; also called PD1H3/PH9L3
fold tighter affinity compared to PD1B114 [25]: ~3 fold
fold tighter affinity compared to PD1B114 [26]: ~2 fold
EC50 [6]: 0.03 to 0.24 µg/mL
EC50 [7]: 0.05 µg/mL
Kd [8]: 9.6 nM
kon [8]: 884000 M⁻¹ s⁻¹
koff [9]: 0.00852 s⁻¹
kon [9]: 516000 M⁻¹ s⁻¹
Kd [10]: 9.7 nM
koff [10]: 0.00905 s⁻¹
kon [10]: 933000 M⁻¹ s⁻¹
Kd [11]: 9.81 nM
Kd [12]: 27.7 nM
koff [12]: 0.008 s⁻¹
kon [12]: 285000 M⁻¹ s⁻¹
Kd [13]: 26.8 nM
kon [13]: 349000 M⁻¹ s⁻¹
Kd [14]: 31.3 nM
koff [14]: 0.00917 s⁻¹
kon [14]: 293000 M⁻¹ s⁻¹
Kd [15]: 35.1 nM
Kd [16]: 26.9 nM
koff [16]: 0.00942 s⁻¹
kon [16]: 350000 M⁻¹ s⁻¹
Kd [17]: 27.1 nM
kon [17]: 350000 M⁻¹ s⁻¹
IC50 [18]: 0.019 µg/mL
IC50 [19]: 0.029 µg/mL
IC50 [20]: 0.017 to 0.018 µg/mL
percentage ligand not blocked at 1 µg/ml [21]: 5%
percentage ligand not blocked at 10 µg/ml [21]: 5%
koff [22]: 0.00867 s⁻¹
Kd [23]: 19.2 nM
koff [23]: 0.00896 s⁻¹
kon [23]: 468000 M⁻¹ s⁻¹
koff [27]: 0.00938 s⁻¹
koff [24]: 0.00943 s⁻¹
kon [24]: 982000 M⁻¹ s⁻¹
koff [28]: 0.01 s⁻¹
kon [28]: 301000 M⁻¹ s⁻¹
koff [29]: 0.00946 s⁻¹
Kd [30]: ~17 nM

More lines, now with the values ahead:

CMV EC50, nM (IFN-γ induction) [5]: 0.07 nM
Kd [1]: 0.096 nM
koff [1]: 8.8e-05 s⁻¹
kon [1]: 914000 M⁻¹ s⁻¹
Jurkat cell binding relative to PD1B28 [2]: 100%
IC50 [3]: 0.055 µg/mL
IC50 [4]: 0.079 µg/mL
B2: PD1B132 (antibody, IgG2, V domains shown)
VH: EVQLVESGGGLVQPGGSLRLSCAASGFAFSRYDMSWVRQAPGKGLESVAYISGGGANTYYLDNVKGRFTISRDNAKNSLYLQMNSLRAEDTAVYYCASPYLSYFDVWGQGTLVTVSS
VL: EIVMTQSPATLSVSPGERATLSCRASQSLSDYLHWYQQKPGQAPRLLIKSASQSISGIPARFSGSGSGTEFTLTISSLQSEDFAVYYCQNGHSFPYTFGQGTKLEIK
notes: Humanized variant of PD1B28; also called PD1H129/PD1L62

EC50 [6]: 0.69 to 1.32 µg/mL
EC50 [7]: 0.69 µg/mL
koff [8]: 0.0341 s⁻¹
kon [8]: 737000 M⁻¹ s⁻¹
Kd [9]: 101 nM
koff [9]: 0.0418 s⁻¹
kon [9]: 415000 M⁻¹ s⁻¹
Kd [10]: 45.4 nM
koff [10]: 0.0349 s⁻¹
kon [10]: 769000 M⁻¹ s⁻¹
koff [11]: 0.0356 s⁻¹
kon [11]: 800000 M⁻¹ s⁻¹
Kd [12]: 109 nM
koff [12]: 0.0245 s⁻¹
kon [12]: 199000 M⁻¹ s⁻¹
Kd [13]: 79.6 nM
koff [13]: 0.0218 s⁻¹
kon [13]: 225000 M⁻¹ s⁻¹
Kd [14]: 123 nM
koff [14]: 0.0258 s⁻¹
kon [14]: 210000 M⁻¹ s⁻¹
Kd [15]: 138 nM
koff [15]: 0.0275 s⁻¹
kon [15]: 225000 M⁻¹ s⁻¹
Kd [16]: 89 nM
koff [16]: 0.0222 s⁻¹
kon [16]: 250000 M⁻¹ s⁻¹
Kd [17]: 100 nM
koff [17]: 0.0226 s⁻¹
kon [17]: 274000 M⁻¹ s⁻¹
IC50 [18]: 0.04 µg/mL
IC50 [19]: 0.059 µg/mL
IC50 [20]: 0.01 to 0.021 µg/mL
percentage ligand not blocked at 1 µg/ml [21]: 6%
percentage ligand not blocked at 10 µg/ml [21]: 6%
Kd [22]: 42.6 nM
Kd [23]: 166 nM
koff [23]: 0.0304 s⁻¹
kon [23]: 184000 M⁻¹ s⁻¹
Kd [24]: 48.3 nM
B3: PD1B70 (antibody, V domains shown)
VH: QVQLVQSGAEVKKPGSSVKVSCKASGGTFSSYAISWVRQAPGQGLEWMGGIIPIFGTANYAQKFQGRVTITADESTSTAYMELSSLRSEDTAVYYCARGYVRATGMLDYWGQGTLVTVSS
VL: EIVLTQSPATLSLSPGERATLSCRASQSVSSYLAWYQQKPGQAPRLLIYDASNRATGIPARFSGSGSGTDFTLTISSLEPEDFAVYYCQQRSNWPLTFGQGTKVEIK
notes: Tested as IgG2sigma/kappa; also called PD1H107/PH9L3
